Values of other authors in US20240247069A1, “FGFR3 BINDING MOLECULES AND METHODS OF USE THEREOF” (Regeneron Pharmaceuticals, Inc., priority 2023, published 2024).
Read-outs that look alike come from different tables or passages of the source.

System: FGFR3
[1] = Table T-3, exemplary FGFR3 D3 binding sequences from cited PCT publications
[2] = literature antibodies, sequences from cited PCT publications

Molecule | Activity [1] | Activity [2]
Hu15D8: anti-FGFR3 domain 3 antibody of WO 2010/002862 A2; VH SEQ ID NO:59, VL SEQ ID NO:60 (antibody, V domains shown) VH: EVQLVQSGAEVKKPGESLKISCKGSGYSFTSYNMYWVRQMPGKGLEWMGYIDPYNGGTSYNQKFKGKATLTVDKSISTAYLQWSSLKASDTAMYYCAREGGNYEAWFAYWGQGTLVTVSS VL: DIQLTQSPSSLSASVGDRVTITCSASSSVSYMYWFQQKPGKAPKPLIYLTSYLASGVPSRFSGSGSGTDFTLTISSLQPEDFATYYCQQWSSYPLTFGGGTKVEIK | Antagonistic | Antagonistic
KC18: anti-FGFR3 IIIb and IIIc antibody of WO 2022/040560 A1; VH SEQ ID NO:72, VL SEQ ID NO:73 (antibody, V domains shown) VH: QVQLQQSGAELVRPGASVTLSCKASGDTFTDFEIHWVKQTPVHGLEWIGDIDPETGGTAYNQKFRGRAMLTADRSSSTAYMELRSLTSEDSAVYYCTRTYDGYPYAMDYWGQGTSVTVSS VL: DIVMSQSPSSLAVSVGEKVTMSCKSSQSLLYSNNQKNYLAWYQQKPGQSPKLLIYWASTRESGVPDRFTGSGSGTDFTLTISSVKAEDLAVYYCQQYYSYRTFGGGTKLEIK | Antagonistic | Antagonistic
2G4: anti-FGFR3 domain 3 antibody of WO 2010/002862 A2; VH SEQ ID NO:55, VL SEQ ID NO:54 (antibody, V domains shown) VH: EIQLQQSGPELVKPGASVKVSCKASGYAFTSYNMYWVKQSHGKSLEWIGYIDPYNGGTRDNQKFKGKATLTVDKSSSTAYMHLNSLTSEDSAVYYCAREGGNYEAWFAYWGQGTLVTVSA VL: QIVLTQSPALMSASPGEKVTMTCSASSSVSYMYWYQQKPRSSPKPWIYLTSNLASGVPARFSGSGSGTSYSLTISSMEAEDAATYYCQQWSSNPLTFGAGTKLELK | Antagonistic | Antagonistic
4E7(7D12): anti-FGFR3 domain 3 antibody of WO 2010/002862 A2; VH SEQ ID NO:56, VL SEQ ID NO:54 (antibody, V domains shown) VH: EIQLQQSGPELVKPGASVKVSCKASGYAFTSYNMYWVKQSHGKSLEWIGYIDPYNGGTRYNQKFKGKATLTVDKSSSTAYMHLNSLTSEDSAVYYCAREGGNYEAWFAYWGQGTLVTVSA VL: QIVLTQSPALMSASPGEKVTMTCSASSSVSYMYWYQQKPRSSPKPWIYLTSNLASGVPARFSGSGSGTSYSLTISSMEAEDAATYYCQQWSSNPLTFGAGTKLELK | Antagonistic | Antagonistic
20B4: anti-FGFR3 domain 3 antibody of WO 2010/002862 A2; VH SEQ ID NO:57, VL SEQ ID NO:58 (antibody, V domains shown) VH: EIQLQQSGPELVKPGASVKVSCKASGYSLTDYNMYWVKQSHGKSLEWIGYIDPYNGGTSYNQKFKGKATLTVDKSSSTAFMHLNSLTSEDSAVYYCARSLGPDFDYWGQGTTLTVSS VL: QIVLTQSPAIMSASPGEKVTMTCSASSSVNYMHWYQQKSGTSPKRWIYDTSKLASGVPARFSGSGSGTSYSLTISSMEAEDTATYYCQQWNSNPLTFGAGTKLELK | Antagonistic | Antagonistic
MS-Pro-59: anti-FGFR3 Ig-like domain 3 antibody of WO 2002/102972 A2; VH SEQ ID NO:28, VL SEQ ID NO:29 (antibody, V domains shown) VH: QVQLQQSGPGLVKPSQTLSLTCAISGDSVSSNSAAWNWIRQSPGRGLEWLGRTYYRSKWYNDYAVSVKSRITINDTSKNQFSLQLNSVTPEDTAVYYCARSYYPDFDYWGQGTVTVSS VL: DIELTQPPSVSVAPGQTARISCSGDALGDKYASWYQQKPGQAPVLVIYDDSDRPSGIPERFSGSNSGNTATLTISGTQAEDEADYYCQSYDGPDLWVFGGGTKLTVLGQ | Antagonistic | Antagonistic
184.6.1.N54S: anti-FGFR3 Ig-like domain 3 antibody of WO 2010/111367 A1; VH SEQ ID NO:63, VL SEQ ID NO:64 (antibody, V domains shown) VH: EVQLVESGGGLVQPGGSLRLSCAASGFTFTSTGISWVRQAPGKGLEWVGRIYPTSGSTNYADSVKGRFTISADTSKNTAYLQMNSLRAEDTAVYYCARARTYGIYDLYVDYTEYVMDYWGQGTLV VL: DIQMTQSPSSLSASVGDRVTITCRASQDVDTSLAWYQQKPGKAPKLLIYSASFLYSGVPSRFSGSGSGTDFTLTISSLQPEDFATYYCQQSTGHPQTFGQGTKVEIKR | Antagonistic | Antagonistic
184.6.62: anti-FGFR3 Ig-like domain 3 antibody of WO 2010/111367 A1; VH SEQ ID NO:67, VL SEQ ID NO:68 (antibody, V domains shown) VH: EVQLVESGGGLVQPGGSLRLSCAASGFTFSTTGISWVRQAPGKGLEWVARIYPLYGSTHYADSVKGRFTISADTSKNTAYLQMNSLRAEDTAVYYCARARTYGIYDLYVDYTEYVMDYWGQGTLV VL: DIQMTQSPSSLSASVGDRVTITCRASQDVSTAVAWYQQKPGKAPKLLIYSASFLYSGVPSRFSGSGSGTDFTLTISSLQPEDFATYYCQQTYTTSLTFGQGTKVEIKR | Antagonistic | Antagonistic
184.6.58: anti-FGFR3 Ig-like domain 3 antibody of WO 2010/111367 A1 (aka R3Mab); VH SEQ ID NO:65, VL SEQ ID NO:66; comparator REGN6331 (antibody, V domains shown, anti-FGFR3 Ig-like domain 3 antibody of WO 2010/111367 A1 (aka R3Mab); comparator REGN6331) VH: EVQLVESGGGLVQPGGSLRLSCAASGFTFTSTGISWVRQAPGKGLEWVARIYPTNGSTNYADSVKGRFTISADTSKNTAYLQMNSLRAEDTAVYYCARARTYGIYDLYVDYTEYVMDYWGQGTLV VL: DIQMTQSPSSLSASVGDRVTITCRASQDVDISLAWYQQKPGKAPKLLIYSASFLYSGVPSRFSGSGSGTDFTLTISSLQPEDFATYYCQQGAGNPYTFGQGTKVEIKR | Antagonistic | Antagonistic
184.6.1.NS D30E: anti-FGFR3 Ig-like domain 3 antibody of WO 2010/111367 A1; VH SEQ ID NO:63, VL SEQ ID NO:69 (antibody, V domains shown) VH: EVQLVESGGGLVQPGGSLRLSCAASGFTFTSTGISWVRQAPGKGLEWVGRIYPTSGSTNYADSVKGRFTISADTSKNTAYLQMNSLRAEDTAVYYCARARTYGIYDLYVDYTEYVMDYWGQGTLV VL: DIQMTQSPSSLSASVGDRVTITCRASQDVETSLAWYQQKPGKAPKLLIYSASFLYSGVPSRFSGSGSGTDFTLTISSLQPEDFATYYCQQSTGHPQTFGQGTKVEIKR | Antagonistic | Antagonistic
B-701: anti-FGFR3 antibody of WO 2016/134234 A1; VH SEQ ID NO:70, VL SEQ ID NO:71 (antibody, V domains shown) VH: EVQLVESGGGLVQPGGSLRLSCAASGFTFTSTGISWVRQAPGKGLEWVGRIYPTSGSTNYADSVKGRFTISADTSKNTAYLQMNSLRAEDTAVYYCARTYGIYDLYVDYTEYVMDYWGQGTLV VL: DIQMTQSPSSLSASVGDRVTITCRASQDVDTSLAWYKQKPGKAPKLLIYSASFLYSGVPSRFSGSGSGTDFTLTISSLQPEDFATYYCQQSTGHPQTFGQGTKVEIKR | – | Antagonistic
VH: SEQ ID NO: 7 of PCT Publication No: WO 2010/048026 A2: unnamed anti-FGFR3 Ig-like domain 2 antibody of WO 2010/048026 A2; VH SEQ ID NO:61, VL SEQ ID NO:62 (antibody, V domains shown) VH: EVQLVQSGAEVKKPGASVKVSCKASGYMFTSYGISWVRQAPGQGLEWMGWVSTYNGDTNYAQKFQGRVTVTTDTSTSTAYMELRSLRSEDTAVYYCARVLGYYDSIDGYYYGMDVWGQGTTVTVSS VL: QSVLTQPPSLSVAPGKTATFTCGGNNIGDKSVHWYRQKPGQAPVLVMYLDTERPSGIPERMSGSNFGNTATLTITRVEAEDEADYYCQVWDSGSDHVVFGGGTKLTVLG | – | Antagonistic
KE58: anti-FGFR3 IIIb and IIIc antibody of WO 2022/040560 A1; VH SEQ ID NO:78, VL SEQ ID NO:79 (antibody, V domains shown) VH: EVQLQQSGPDLVKPGASVKISCKASGYTVTDYYMNWVKQSHGKSLEWIGDINPNNGVTTYNQKFKDKATLTVDKSSSTAYMELRSLTSEDSAVYYCAREEDFDGFDYWGQGTTLTVSS VL: DIVMTQSHKFMSTSVGDRVSITCKASQDVSTGVAWYQQKPGQSPQLLIYWASTRHTGVPDRFTGSGSGTDYILTIRSVQAEDLALYYCQQHYSTPLTFGAGTKLELK | Antagonistic | Antagonistic
KE35: anti-FGFR3 IIIb and IIIc antibody of WO 2022/040560 A1; VH SEQ ID NO:74, VL SEQ ID NO:75 (antibody, V domains shown) VH: EVQLQQSGPELVKPGASVKMSCKASGYTFTDYNMHWVKQSHGKSLEWIGYINPNNGGTRYNQKFKGKATLTVNKSSSTAYMELRSLTSEDSAVYYCARERDYDGAMDYWGQGTSVTVSS VL: DIQMTQSPSSLSASLGGKVTITCKASQDINKFIAWYQHKPGKGPRLLIHYTSTLQPGIPSRFSGSGSGRDYSFSISNLEPEDIATYYCLQYDNLLWTFGGGTKLEIK | Antagonistic | Antagonistic
KE42: anti-FGFR3 IIIb and IIIc antibody of WO 2022/040560 A1; VH SEQ ID NO:76, VL SEQ ID NO:77 (antibody, V domains shown) VH: EVQLQQSGPELVKPGASVKMSCKASGYTFTDYNMHWVKQSHGKSLQWIGYINPNNGGTNYNQNFKDKATLTVNKSSTTAYMELRSLTSEDSAVYYCARERDYDGSMDFWGQGTSVTVSS VL: DIQMTQSPSSLSASLGGKVTITCKASQDINKFIAWYQHKPGKGPRLLIHYTSTLQPGIPSRFSGSGSGRDYSFSISNLEPEDIATYFCLQYDNLLWTFGGGTKLEIK | Antagonistic | Antagonistic
